Legend:
Assay in all cases: MST
[1] = biological target: human NDPK-A (nucleoside diphosphate kinase A), full-length recombinant (UniProt P15531 2-152)
[2] = biological target: human ADK (adenosine kinase), recombinant (UniProt P55263 2-362)
[3] = biological target: T1, recombinant human FABP4 (fatty acid binding protein 4) (UniProt P15090 2-132)
T1 chain: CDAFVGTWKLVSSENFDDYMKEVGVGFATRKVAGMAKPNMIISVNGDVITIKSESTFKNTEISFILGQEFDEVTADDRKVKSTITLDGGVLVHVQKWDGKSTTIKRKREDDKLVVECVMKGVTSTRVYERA

Chain of human NDPK-A (nucleoside diphosphate kinase A), full-length recombinant (P15531 other isoform, or with tags, fused parts or gaps): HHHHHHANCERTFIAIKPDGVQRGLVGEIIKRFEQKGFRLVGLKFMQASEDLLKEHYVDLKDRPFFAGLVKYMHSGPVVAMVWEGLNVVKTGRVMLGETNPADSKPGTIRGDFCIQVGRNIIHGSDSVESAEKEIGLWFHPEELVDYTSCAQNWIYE
Chain of human ADK (adenosine kinase), recombinant (P55263 2-362): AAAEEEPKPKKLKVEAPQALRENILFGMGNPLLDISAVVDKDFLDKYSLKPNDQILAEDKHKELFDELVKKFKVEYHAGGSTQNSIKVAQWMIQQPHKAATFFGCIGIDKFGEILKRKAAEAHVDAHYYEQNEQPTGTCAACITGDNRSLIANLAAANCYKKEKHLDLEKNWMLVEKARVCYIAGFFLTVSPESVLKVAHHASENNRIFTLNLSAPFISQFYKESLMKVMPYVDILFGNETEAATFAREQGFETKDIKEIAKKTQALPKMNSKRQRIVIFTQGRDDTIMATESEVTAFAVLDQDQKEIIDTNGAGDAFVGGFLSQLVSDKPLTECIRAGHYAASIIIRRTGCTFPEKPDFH

EC50 [1]: 143 nM
EC50 [2]: 1880 nM
Kd [3]: 2860 nM
B1: CA33 (a-Ab) monoclonal antibody (antibody)
heavy: QSVEESGGRLVTPGTPLTLTCTVSGFSLSTYYMSWVRQAPGKGLEWIGIIYPSGSTYCASWAKGRFTISKASTTVDLKITSPTTEDTATYFCARPDNDGTSGYLSGFGLWGQGLVTVSSAKTTPPSVYPLAPGSAAQTNSMVTLGCLVKGYFPEPVTVTWNSGSLSSGVHTFPAVLQSDLYTLSSSVTVPSSTWPSETVTCNVAHPASSTKVDKKIVPRDC
light: DVVMTQTPASVSEPVGGTVTIKCGASEDISRYLVWYQQKPGQPPKRLIYKASTLASGVPSRFKGSGSGTDFTLTISDLECDDAATYYCQCTYGTYAGSFFYSFGGGTEVVVERTDAAPTVSIFPPSSEQLTSGGASVVCFLNNFYPKDINVKWKIDGSERQNGVLNSWTDQDSKDCTYSMSSTLTLTKDEYERHNSYTCEATHKTSTSPIVKSFNRNEC

From patent US20230203142A1 (published 2023)
